Experimental data taken from patent publication US20230121197A1, “ANTIBODIES SPECIFICALLY BINDING THE CARBOXYMETHYLATED CATALYTIC SUBUNIT OF PROTEIN PHOSPHATASE 2A” (Medizinische Universität Wien, priority 2020, published 2023).

Target: T1, PP2Ac (Homo sapiens, UniProt P67775)
T1 construct: the carboxy-terminal methyl group was chemically removed from cellular PP2Ac; endogenous in cells; host or cells: HAP1 wild type, HAP1 Lcmt-1-KO, HEK293Trex / HEK293T
Test: Western blot of human cell lysates (HAP1, HEK293; NaOH treatment, Lcmt-1-KO)
Format: binding
Protocol: NIH3T3 mouse fibroblasts and human embryonic kidney cells (HEK293Trex) were grown in DMEM+10% FCS+2 mM L-glutamine (Sigma, G2150)+100 units/ml Penicillin/0.1 mg/ml Streptomycin at 37° C. in a 7.5% CO2 atmosphere. HAP1 wild type and HAP1 Lcmt-1-KO cells (Leucine carboxyl methyltransferase 1 deleted by CRISPR/Cas9; Horizon Discovery, #C631 and #HZGHC004373c001) were grown in Iscove's Modified Dulbecco's Medium (IMDM, Thermo Fischer Scientific, Life Technologies #12440053) supplemented with 10% (v/v) Fetal Calf Serum (FCS) (Sigma #F7524, lot 104M3333), GlutaMAX™ (Thermo Fischer Scientific, Life Technologies #35050-38, lot 1895829), and Penicillin-Streptomycin solution (Sigma, #P4333, lot 125M4781V) in a 5% CO2 atmosphere. Of note, HAP1 is a near-haploid human cell line that was derived from the chronic myelogenous leukemia (CML) cell line KBM-7 (Carette (2011), Nature 477(7364):340-3). For cell lysis, exponentially growing cells were washed once with ice-cold PBS, once with ice-cold IP-Wash buffer (20 mmol/l Tris pH 8.0, 135 mmol/l NaCl, 10% glycerol) and lysed on the petri-dish in ice-cold IP-Lyse buffer (18 mmol/l Tris pH 8.0, 122 mmol/l NaCl, 9% glycerol, 1% w/v NP-40) for 20 min at 4° C. rocking. Lysed cells were transferred to Eppendorf 1.5 ml tubes and centrifuged for 15 min at 14,000 rpm at 4° C. in a Beckman & Coulter Microfuge 18 centrifuge. The protein concentration was determined with the Protein Assay Dye Reagent (Biorad, 500-0006) and measurement of absorbance at 595 nm in a Hitachi U-2000 spectrophotometer. […]
To test these antibodies in the western blot analysis with methylated and non-methylated full-length PP2Ac the methyl group was chemically removed from cellular PP2Ac by treating lysates of the human cell line, HAP1, with NaOH, as described in Example 2. […] In agreement with the results of the NaOH experiments, […] of PP2Ac were detected in HAP1 cells that lack the PP2A methyltransferase LCMT-1 indicating the preference of these antibodies for non-methylated PP2Ac (FIG. 22). […]

T1 sequence (P67775 whole entry): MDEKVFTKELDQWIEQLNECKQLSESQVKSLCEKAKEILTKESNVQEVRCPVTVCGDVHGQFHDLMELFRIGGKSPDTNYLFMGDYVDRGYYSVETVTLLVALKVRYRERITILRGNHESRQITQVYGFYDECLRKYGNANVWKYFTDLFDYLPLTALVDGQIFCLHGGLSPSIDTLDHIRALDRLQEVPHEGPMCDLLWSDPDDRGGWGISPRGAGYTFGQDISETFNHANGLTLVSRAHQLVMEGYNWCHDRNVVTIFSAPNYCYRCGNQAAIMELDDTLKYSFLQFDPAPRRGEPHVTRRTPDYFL

B1: 7C10-C5: α-carboxymethylation specific mouse monoclonal IgG1 antibody from single clone hybridoma 7C10-C5 (DSM ACC3350) (antibody)
heavy: MYRMQLLSCIALSLALVTNSDVQLQESGPGLVKPSQSLSLTCSVTGYSITSGYYWNWIRQFPGNKLEWMGYISYDGSNNYNPSLKNRISITRDTSKNQFFLKLNSVTTEDTATYYCAGRFAYWGQGTLVTVSAAKTTAPSVYPLAPVCGDTTGSSVTLGCLVKGYFPEPVTLTWNSGSLSSGVHTFPAVLQSDLYTLSSSVTVTSSTWPSQSITCNVAHPASSTKVDKKIEPRGPTIKPCPPCKCPAPNLLGGPSVFIFPPKIKDVLMISLSPIVTCVVVDVSEDDPDVQISWFVNNVEVHTAQTQTHREDYNSTLRVVSALPIQHQDWMSGKEFKCKVNNKDLPAPIERTISKPKGSVRAPQVYVLPPPEEEMTKKQVTLTCMVTDFMPEDIYVEWTNNGKTELNYKNTEPVLDSDGSYFMYSKLRVEKKNWVERNSYSCSVVHEGLHNHHTTKSFSRTPGK
light: MDMRVPAQLLGLLLLWLSGARCDVLMTQTPLSLPVSLGDQASISCRSSQSIVHSNGNTYLEWYLQKPGQSPKLLIYKVSNRFSGVPDRFSGSGSGTDFTLKINRVEAEDLGVYYCFQGSHVPWTFGGGTKLEIKADAAPTVSIFPPSSEQLTSGGASVVCFLNNFYPKDINVKWKIDGSERQNGVLNSWTDQDSKDSTYSMSSTLTLTKDEYERHNSYTCEATHKTSTSPIVKSFNRNEC
modifications: Amino acid sequence of the recombinant 7C10-C5 heavy chain; Amino acid sequence of the recombinant 7C10-C5 light chain
In the case of B1, the “detection of PP2Ac in HAP1 cells that lack LCMT-1 (Lcmt-1-KO)” value is reported as “no carboxymethylated PP2Ac specific signals were detected” and the “detection of PP2Ac in untreated versus NaOH treated cell lysates” value (HAP1, HEK293) is reported as “only detected methylated PP2Ac in the untreated cell lysates but not in the NaOH treated lysates”.
